Data from publication PMC7305236.
No end group written: not given here.

Tests used:
[1] = biological target: delta opioid receptor (DOR) C-terminally tagged with SmBiT (UniProt P41143)
[2] = biological target: ACKR3 C-terminally tagged with SmBiT (human) (UniProt P25106)
[3] = biological target: kappa opioid receptor (KOR) C-terminally tagged with SmBiT (UniProt P41145)
[4] = biological target: mu opioid receptor (MOR) C-terminally tagged with SmBiT (UniProt P35372)
[5] = biological target: atypical chemokine receptor ACKR3 (formerly CXCR7) (human) (UniProt P25106)
Chain of atypical chemokine receptor ACKR3 (formerly CXCR7) (human) (P25106 whole entry): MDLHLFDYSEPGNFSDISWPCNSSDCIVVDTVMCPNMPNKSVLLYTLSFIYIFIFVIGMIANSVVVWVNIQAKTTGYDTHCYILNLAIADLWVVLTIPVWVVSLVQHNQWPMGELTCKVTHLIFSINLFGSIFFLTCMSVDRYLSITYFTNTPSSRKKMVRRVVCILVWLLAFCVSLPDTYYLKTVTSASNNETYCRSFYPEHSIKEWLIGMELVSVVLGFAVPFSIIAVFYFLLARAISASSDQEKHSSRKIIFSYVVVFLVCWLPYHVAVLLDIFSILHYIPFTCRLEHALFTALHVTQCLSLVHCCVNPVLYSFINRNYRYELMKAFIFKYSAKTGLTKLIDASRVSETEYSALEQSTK

[6] = biological target: ACKR3 C-terminally tagged with SmBiT (human) (UniProt P25106); remark: listed apart in the source
[7] = biological target: ACKR3 C-terminally tagged with SmBiT (human) (UniProt P25106); remark: listed apart in the source

Chain of ACKR3 C-terminally tagged with SmBiT (human) (P25106 whole entry): as above

B1: BAM22 (peptide)
peptide: YGGFMRRVGRPEWWMDYQKRYG
β-arrestin-1 recruitment (NanoBiT, U87 cells): EC50 [1]: 367 nM | β-arrestin-1 recruitment (NanoBiT, U87 cells): EC50 [2]: 23.5 nM | β-arrestin-1 recruitment (NanoBiT, U87 cells): EC50 [3]: 44.2 nM | β-arrestin-1 recruitment (NanoBiT, U87 cells): EC50 [4]: 10 nM

B2: second-generation peptide FGGWMRRF (peptide)
peptide: FGGWMRRF-NH2
Supplementary Table 5: EC50 of β-arrestin-1 recruitment to ACKR3 [5]: 19.1 nM

B3: Met enkephalin (peptide)
peptide: YGGFM
β-arrestin-1 recruitment (NanoBiT, U87 cells): EC50 [1]: 16.3 nM | β-arrestin-1 recruitment (NanoBiT, U87 cells): EC50 [4]: 419 nM

B4: CXCL11 (ligand)
chain: FPMFKRGRCLCIGPGVKAVKVADIEKASIMYPSNNCDKIEVIITLKENKGQRCLNPKSKQARLIIKKVERKNF
β-arrestin recruitment to ACKR3 (Fig. 4b): EC50 [6]: 2.2 nM

B5: second-generation peptide … (peptide)
peptide: FGGWMRRFR-NH2
Supplementary Table 5: EC50 of β-arrestin-1 recruitment to ACKR3 [5]: 19.1 nM

B6: adrenorphin Y1F variant (peptide)
peptide: FGGFMRRV-NH2
potency in β-arrestin-1 recruitment against wild-type adrenorphin (U87 cells) [7]: 10 fold

B7: second-generation peptide … (peptide)
peptide: FGGFMRRFR-NH2
Supplementary Table 5: EC50 of β-arrestin-1 recruitment to ACKR3 [5]: 16.3 nM
